Experimental data published in patent US20250025561A1, “LIQUID COMPOSITIONS COMPRISING A PHOSPHORYLCHOLINE-TUFTSIN CONJUGATE” (Tarsier Pharma Ltd., priority 2021, published 2025).
*1 amine or outer side, *2 acyl side, *3 side chain or, on linkers, in order; H or OH if unused. Where a SMILES comes first, the peptide text is derived from it. [ ]: non-standard residue; d: D form. X1 = C[N+](C)(C)CCOP(=O)([O-])Oc1ccc(/N=N/c2cc(C[C@H](N[*:1])C(=O)[*:2])ccc2O)cc1; X2 = C[N+](C)(C)CCOP(=O)(O)Oc1ccc(/N=N\c2cc(CC(N[*:1])C(=O)[*:2])ccc2O)cc1; NMeT = CN[CH](C(=O)O)[CH](C)O

Assays:
[1] = Biological activity (test not specified)
[2] = Chemical stability of the synthesized conjugates; format: physicochemical
Experimental: In brief, 50 mg of TRS was dissolved in 2.5 mL of water and 50 equivalents of acetaldehyde were added (at room temperature). Then, the pH was adjusted to 6.8. The solution was shaken over the weekend and analyzed by an analytical HPLC. […] The reaction mixture was purified by a preparative HPLC, to isolate the phosphorylcholine tuftsin conjugate of Formula 3A.
The phosphorylcholine tuftsin conjugate of Formula 3A was dissolved in 0.1% formic acid in water and the pH was adjusted to 2.7. After 30 min, the solution was lyophilized. The crude reaction mixture was purified by preparative HPLC to obtain the phosphorylcholine tuftsin conjugate of Formula 2A.

yeasts (S. cerevisiae) = assay: Yeast fermentation activity (gas formation) in aqueous suspension with sucrose; format: cell-based; details: FIG. 2
Experimental: Yeast fermentation activity was correlated to the formation of bubbles within the aqueous suspension.
In brief, varying amount of 1% w/w solution of TRS was added to an aqueous suspension containing yeasts (S. cerevisiae) and a sufficient amount of sucrose, to obtain aqueous compositions containing 4 ppm, 20 ppm, 40 ppm, and 80 ppm of TRS. The gas formation (fermentation activity) of the aqueous suspension with TRS (hereinafter, “the sample”) was quantified by evaluating the volume of the released gas and compared to a similar aqueous yeast suspension devoid of TRS (hereinafter, “the control”).
Further, the phosphorylcholine tuftsin conjugate (PC) of Formula 2A synthesized as disclosed herein, has been tested to evaluate its antifungal activity. The inventors performed a similar experiment, as disclosed above, using varying concentrations of the phosphorylcholine tuftsin conjugate of Formula 2 (i.e. 6.7 ppm, 20 ppm, 40 ppm, and 80 ppm).

[3] = Solubility of drug substance in water; format: physicochemical
Experimental: Drug Substance [TRS]: is a trifluoroacetate [TFA] salt of phosphorylcholine-tuftsin conjugate represented by Formula 1 (as shown herein). Molecular formula: C43H68N13O13P, Appearance: Yellow to orange solid. Solubility: >40 mg/ml in water.

CC1NC([C@@H](C)O)C(=O)N1[C@@H](CCCCN)C(=O)N1CCCC1C(=O)N[C@@H](CCCNC(=N)N)CNCC(=O)N[C@@H](Cc1ccc(O)c(/N=N\c2ccc(OP(=O)(O)OCC[N+](C)(C)C)cc2)c1)C(=O)O (stereo partly shown) [Formula 2A]
biological activity [1]: solid biological activity | chemical stability [2]: sufficient chemical stability

CC(O)C1NC(C)N(C(CCCCN)C(=O)N2CCCC2C(=O)NC(CCCNC(=N)N)C(=O)NCC(=O)NC(Cc2ccc(O)c(N=Nc3ccc(OP(=O)(O)OCC[N+](C)(C)C)cc3)c2)C(=O)O)C1=O (stereo not shown) [Formula 2]
yeast activity vs control (yeasts (S. cerevisiae); 80 ppm): almost completely eliminated | yeast activity vs control (yeasts (S. cerevisiae); lowest concentration of about 7 ppm (6.7 ppm)): significant reduction of the yeast activity

C/C=N/CCCC[C@@H](C(=O)N1CCCC1C(=O)N[C@@H](CCCNC(=N)N)CNCC(=O)N[C@@H](Cc1ccc(O)c(/N=N/c2ccc(OP(=O)(O)OCC[N+](C)(C)C)cc2)c1)C(=O)O)N1C(=O)C([C@@H](C)O)NC1C (stereo partly shown) [Formula 3A]
hydrolysis (converted into PC of Formula 2A) ([2]; at acidic pH): undergoes hydrolysis

CNC(C(=O)NC(CCCCN)C(=O)N1CCCC1C(=O)NC(CCCNC(=N)N)C(=O)NCC(=O)NC(Cc1ccc(O)c(/N=N\c2ccc(OP(=O)(O)OCC[N+](C)(C)C)cc2)c1)C(=O)O)C(C)O (stereo not shown) [Formula 5] (H-[NMeT]KPRG[X2]-OH; configuration not given here)
chemical stability as compared to PC of Formula 2 [2]: reduced chemical stability

C[C@@H](O)[C@H](N)C(=O)N[C@@H](CCCCN)C(=O)N1CCC[C@H]1C(=O)N[C@@H](CCCNC(=N)N)C(=O)NCC(=O)N[C@@H](Cc1ccc(O)c(/N=N/c2ccc(OP(=O)([O-])OCC[N+](C)(C)C)cc2)c1)C(=O)O [TRS] (H-TKPRG[X1]-OH)
solubility [3]: > 40 mg/mL
